Data from patent US10704030B2, “P450-BM3 variants with improved activity” (Codexis, Inc., priority 2015, dated 2020).

B1: SEQ ID NO: 6: P450-BM3 parental backbone from the commercially available MCYP panel (MCYP-0343; Codexis) (protein)
chain: MTIKEMPQPKTFGELKNLPLLNTDKPVQALMKIADELGEIFKFEAPGCVTRYLSSQRLIKEACDESRFDKNLSQALKFARDFLGDGLFTSWTHEINWKKAHNILLPSFSQQAMKGYHAMMVDIAVQLVQKWERLNADEHIEVSEDMTRLTLDTIGLCGFNYRFNSFYRDQPHPFIISMVRALDEVMNKLQRANPDDPAYDENKRQCQEDIKVMNDLVDKIIADRKARGEQSDDLLTQMLNGKDPETGEPLDDGNISYQIITFLIAGHETTSGLLSFALYFLVKNPHVLQKVAEEAARVLVDPVPSYKQVKQLKYVGMVLNEALRLWPTAPAFSLYAKEDTVLGGEYPLEKGDEVMVLIPQLHRDKTIWGDDVEEFRPERFENPSAIPQHAFKPFGNGQRACIGQQFALHEATLVLGMMLKHFDFEDHTNYELDIKETLTLKPEGFVVKAKSKKIPLGGIPSPSTEQSAKKVRKKAENAHNTPLLVLYGSNMGTAEGTARDLADIAMSKGFAPQVATLDSHAGNLPREGAVLIVTASYNGHPPDNAKQFVDWLDQASADEVKGVRYSVFGCGDKNWATTYQKVPAFIDETLAAKGAENIADRGEADASDDFEGTYEEWREHMWSDVAAYFNLDIENSEDNKSTLSLQFVDSAADMPLAKMHGAFSTNVVASKELQQPGSARSTRHLEIELPKEASYQEGDHLGVIPRNYEGIVNRVTARFGLDASQQIRLEAEEEKLAHLPLAKTVSVEELLQYVELQDPVTRTQLRAMAAKTVCPPHKVELEALLEKQAYKEQVLAKRLTMLELLEKYPACEMKFSEFIALLPSIRPRYYSISSSPRVDEKQASITVSVVSGEAWSGYGEYKGIASNYLAELQEGDTITCFISTPQSEFTLPKDPETPLIMVGPGTGVAPFRGFVQARKQLKEQGQSLGEAHLYFGCRSPHEDYLYQEELENAQSEGIITLHTAFSRMPNQPKTYVQHVMEQDGKKLIELLDQGAHFYICGDGSQMAPAVEATLMKSYADVHQVSEADARLWLQQLEEKGRYAKDVWAG
modifications: P450_BM3
B2: Variant 16: P450-BM3 variant of SEQ ID NO: 6: K32R; C48S; Y52F; G115R; L216Y; D232H; E349K; M491A; T577A; E619D; A627S; D722S (protein)
chain: MTIKEMPQPKTFGELKNLPLLNTDKPVQALMRIADELGEIFKFEAPGSVTRFLSSQRLIKEACDESRFDKNLSQALKFARDFLGDGLFTSWTHEINWKKAHNILLPSFSQQAMKRYHAMMVDIAVQLVQKWERLNADEHIEVSEDMTRLTLDTIGLCGFNYRFNSFYRDQPHPFIISMVRALDEVMNKLQRANPDDPAYDENKRQCQEDIKVMNDYVDKIIADRKARGEQSHDLLTQMLNGKDPETGEPLDDGNISYQIITFLIAGHETTSGLLSFALYFLVKNPHVLQKVAEEAARVLVDPVPSYKQVKQLKYVGMVLNEALRLWPTAPAFSLYAKEDTVLGGEYPLKKGDEVMVLIPQLHRDKTIWGDDVEEFRPERFENPSAIPQHAFKPFGNGQRACIGQQFALHEATLVLGMMLKHFDFEDHTNYELDIKETLTLKPEGFVVKAKSKKIPLGGIPSPSTEQSAKKVRKKAENAHNTPLLVLYGSNAGTAEGTARDLADIAMSKGFAPQVATLDSHAGNLPREGAVLIVTASYNGHPPDNAKQFVDWLDQASADEVKGVRYSVFGCGDKNWAATYQKVPAFIDETLAAKGAENIADRGEADASDDFEGTYEEWRDHMWSDVASYFNLDIENSEDNKSTLSLQFVDSAADMPLAKMHGAFSTNVVASKELQQPGSARSTRHLEIELPKEASYQEGDHLGVIPRNYEGIVNRVTARFGLSASQQIRLEAEEEKLAHLPLAKTVSVEELLQYVELQDPVTRTQLRAMAAKTVCPPHKVELEALLEKQAYKEQVLAKRLTMLELLEKYPACEMKFSEFIALLPSIRPRYYSISSSPRVDEKQASITVSVVSGEAWSGYGEYKGIASNYLAELQEGDTITCFISTPQSEFTLPKDPETPLIMVGPGTGVAPFRGFVQARKQLKEQGQSLGEAHLYFGCRSPHEDYLYQEELENAQSEGIITLHTAFSRMPNQPKTYVQHVMEQDGKKLIELLDQGAHFYICGDGSQMAPAVEATLMKSYADVHQVSEADARLWLQQLEEKGRYAKDVWAG
modifications: P450_BM3
notes: C48S; Y52F; G115R; L216Y; D232H; E349K; M491A; T577A; E619D; A627S; D722S

Key:
Format in all cases: biochemical
[1] = Validation of generalist properties: oxidation of loratadine by lyophilized P450-BM3 variant, UPLC-MS; settings: [Loratadine] = 1 mM; for TON: TON = [substrate]*% conversion/[P450]
How it was run: (§1)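 Lyophilized lysate of E. coli-expressed P450-BM3 variant (stock standardized to 12 μM heme) was incubated 24 h at 30 °C with 1 or 2 mM substrate, 1.0 mM NADP+, 25 mM glucose, 0.5 mg/mL glucose dehydrogenase and 5% DMSO in 100 mM potassium phosphate. Acetonitrile-quenched samples were analyzed by UPLC-MS (positive ESI).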

[2] = Validation of generalist properties over the four substrates screened
Experimental: For the production of lyophilized protein powders, LB agar plates supplemented with chloramphenicol (30 μg/mL) were streaked with E. coli containing a desired B. megaterium P450-BM3 variant in an IPTG-inducible vector. The plates were grown at 37° C. for 16 hrs before single clones were selected to inoculate a 15 mL Falcon™ tube (Fisher) containing TB media (3 mL) supplemented with chloramphenicol (30 μg/mL). The tube was shaken at 200 rpm, 30° C., and 85% humidity for 20-24 h to grow the cultures to saturation. Then, 2.5 mL of the overnight culture was used to inoculate sterile 1 L flasks containing TB medium (250 mL) supplemented with chloramphenicol (30 μg/mL), trace element solution (as described above), and 0.05 g/L ammonium iron (III) citrate. After being shaken at 250 rpm, 30° C., and 85% humidity to an OD600 of 0.8-1.2, P450 expression was induced by addition of IPTG (500 uM) and the heme precursor 5-aminolevulinic acid (5-ALA) to a final concentration of 500 uM. The cultures were grown for additional 20-24 hours and centrifuged in pre-weighed 250 mL centrifuge bottles for 20 minutes at 4000 rpm, 4° C. The supernatants were discarded, and the centrifuge bottles containing cell pellets were weighed. The pellets were resuspended in 50 mM potassium phosphate buffer with 2 mM DTT, pH 8.0 (5 mL of buffer per gram of cell pellet). The cells were lysed using a microfluidizer homogenizer, and the suspensions of cells and lysate were collected in sterile 50 mL centrifuge tubes. The samples were centrifuged for 30 minutes at 10,000 rpm, 4° C. The clarified lysate was collected into a plastic petri plate and frozen at −80° C. prior to lyophilization. The enzyme-containing lysates were lyophilized using standard methods known in the art.
Enzyme stocks (˜12 μM) were prepared by dissolving ˜20 mg of each enzyme in 100 mM potassium phosphate buffer, pH 8.0 (1 mL). The concentration of each enzyme stock solution was determined by the UV-visible absorption spectroscopy (after centrifugation to remove particulates) and diluted to standardize at 12 μM heme protein. Substrate solutions were prepared by dissolving each substrate in DMSO to reach a final concentration of 20 mM or 40 mM. Reaction mix (235 μL) followed by enzyme solution (50 μL) was added to the plates. The substrate stock solution was added to the enzyme solutions (15 μL at the two different concentrations). Each reaction contained 100 mM potassium phosphate, 1.0 mM NADP+, 25 mM glucose, 0.5 mg/mL glucose dehydrogenase, 5% DMSO and substrate at 1 or 2 mM. Loratadine, imatinib, and gefitinib (See, FIG. 1) were selected as substrates in addition to diclofenac to validate improved BM3 variants. The reactions were shaken at 450 rpm at 30° C. over 24 hours. All reactions were diluted with acetonitrile to a final concentration of 0.5 mM substrate. The plates were then centrifuged at 3,000 g for 1 hour at 20° C. The supernatant was diluted 1:1 with acetonitrile, filtered using a 0.4 micron filter, and analyzed by UPLC-MS.
For UPLC-MS analysis, the quenched and filtered reactions were transferred to 96-well HTP plates for analysis by UPLC on a Waters Acquity H-class system equipped with an autosampler. 1 uL of quenched sample was injected onto an Acquity UPLC HSS T3 column, 100 Å, (1.8 um; 2.1×100 mm). […] Column eluent was monitored by PDA (200-600 nm) prior to MS analysis in positive ESI mode (desolvation temperature 350° C., 3.25 kV spray voltage, cone voltage 25V). […]

[3] = Validation of generalist properties: oxidation of imatinib by lyophilized P450-BM3 variant, UPLC-MS; settings: [Imatinib] = 1 mM; for TON: TON = [substrate]*% conversion/[P450]
How it was run: as §1

[4] = Validation of generalist properties: oxidation of diclofenac by lyophilized P450-BM3 variant, UPLC-MS; settings: [Diclofenac] = 1 mM; for TON: TON = [substrate]*% conversion/[P450]
How it was run: as §1

[5] = Validation of generalist properties: oxidation of gefitinib by lyophilized P450-BM3 variant, UPLC-MS; settings: [Gefitinib] = 1 mM; for TON: TON = [substrate]*% conversion/[P450]
How it was run: as §1

[6] = fold improvement over parent MCYP-1.2-A12

Row | Molecule | % Conv. [1] | TON [1] | performance (% conversion at 1 mM substrate loading) over the substrates screened, in words [2] | % Conv. [3] | TON [3] | % Conv. [4] | TON [4] | % Conv. [5] | TON [5] | FIOPC (A12) [1, 6] | FIOPC (A12) [3, 6] | FIOPC (A12) [4, 6] | FIOPC (A12) [5, 6]
1 | B1 | + (0-5.00) | ‡ (0-1000) | low activity for each substrate screened | + (0-5.00) | ‡‡ (1001-5000) | ++ (5.01-10.00) | ‡‡ (1001-5000) | ++ (5.01-10.00) | ‡‡ (1001-5000) | – | – | – | –
2 | B2 | + (0-5.00) | ‡ (0-1000) | improved and significant activity for three out of four substrates screened | ++++ (15.01-20.00) | ‡‡‡‡ (10000-50000) | ++++ (15.01-20.00) | ‡‡‡‡ (10000-50000) | ++++ (15.01-20.00) | ‡‡‡‡ (10000-50000) | * (0.0-3.0) | **** (10.01-15.00) | * (0.0-3.0) | **** (10.01-15.00)
